Experimental data taken from paper PMC12445699.

What was measured:
[1] = biological target: H3.3-nucleosome (mono-nucleosome with the variant H3.3) (UniProt P84243)
[2] = biological target: H3-nucleosome (mono-nucleosome with canonical H3) (UniProt P84233)
H3.3S31E-nucleosome = H3.3S31E-nucleosome (UniProt P84243)
H3.3S31A-nucleosome = H3.3S31A-nucleosome (UniProt P84243)
[3] = biological target: H3.3S31ph-nucleosome (H3.3-nucleosome with Ser31 phosphorylation) (UniProt P84243)

rupture force at which the nucleosome is completely disrupted in the presence of FACT (magnetic tweezers) [1]: 24.5 pN
rupture force at which the nucleosome is completely disrupted in the presence of FACT (magnetic tweezers) [2]: 6.7 pN
rupture force at which the nucleosome is completely disrupted in the presence of FACT (magnetic tweezers) (H3.3S31E-nucleosome): 25.4 pN
rupture force at which the nucleosome is completely disrupted in the presence of FACT (magnetic tweezers) (H3.3S31A-nucleosome): 25.4 pN
force of disruption in the first stretching cycle in the presence of FACT; no transitions in later cycles (magnetic tweezers) [3]: 13.9 pN
Substance: FACT (Facilitates Chromatin Transcription) complex (from UniProt Q9Y5B9 1-1047; Q08945 1-709)
